Numbering of substitutions follows the chain as printed.
B1: Mab 33 IgG (antibody, V domains shown)
VH: EVQLLESGGGLVQPGGSLRLSCAASGFTFYTNAMGWVRQAPGKGLEWVSAINRFGGSTYYADSVKGRFTISRDNSKNTLYLQMNSLRAEDTAVYYCAKVLGWFDYWGQGTLVTVSS
VL: EIVLTQSPGTLSLSPGERATLSCRASQSVSEYYLAWYQQKPGQAPRLLIEHASTRATGIPDRFSGSGSGTDFTLTISRLEPEDFAVYYCQQYGYPPDFTFGQGTKVEIK
notes: Tested as human IgG1
B2: Mab 39 IgG (antibody, V domains shown)
VH: B1 VH with Y30T, T31Q, N52S, R53P, F54T, G56F
VL: B1 VL
notes: Tested as human IgG1
B3: Mab 42 IgG (antibody, V domains shown)
VH: B1 VH with Y30S, T31D, N52S, R53G, F54P, G56S
VL: B1 VL with E31D, Y32E, A35S, E50H, H51S, T75A
notes: Tested as human IgG1; also called antibody 42; clone 42
B4: Mab 27 IgG (antibody, V domains shown)
VH: EVQLLESGGGLVQPGGSLRLSCAASGFTFSSAPMGWVRQAPGKGLEWVSAISYIGHTYYADSVKGRFTISRDNSKNTLYLQMNSLRAEDTAVYYCAKVLGWFDYWGQGTLVTVSS
VL: B1 VL
notes: Tested as human IgG1

Target: recombinant cynomolgus BCMA Fc(kih) (cynomolgus, UniProt A0A2K5UD97 4-51, biotinylated in vivo at the avi-tag at the C-terminus of the Fc knob chain)
Assay: ratio of the SPR KDs of Table 4, human BCMA as reference
Method: Assessment of binding of anti-BCMA antibodies to recombinant BCMA by surface plasmon resonance (SPR) as follow. All SPR experiments were performed on a Biacore T200 at 25° C. with HBS-EP as running buffer (0.01M HEPES pH 7.4, 0.15M NaCl, 3 mM EDTA, 0.005% Surfactant P20, Biacore, Freiburg/Germany). The avidity of the interaction between anti-BCMA antibodies and recombinant BCMA Fc(kih) (human and cynomolgus) was determined. Biotinylated recombinant human and cynomolgus BCMA Fc(kih) were directly coupled on a SA chip following instructions (Biacore, Freiburg/Germany). The immobilization level ranged from 200 to 700 RU. […] The dissociation was monitored for 180 seconds. Bulk refractive index differences were corrected for by subtracting the response obtained on the reference flow cell. Here, the anti-BCMA antibodies were flown over an empty surface previously activated and deactivated as described in the standard amine coupling kit. Apparent kinetic constants were derived using the Biacore T200 Evaluation Software (vAA, Biacore AB, Uppsala/Sweden), to fit rate equations for 1:1 Langmuir binding by numerical integration, despite the bivalency of the interaction for comparison purposes. The affinity of the interaction between anti-BCMA antibodies and recombinant human BCMA Fc(kih) was also determined. Anti-human Fab antibody (GE Healthcare) was directly coupled on a CM5 chip at pH 5.0 using the standard amine coupling kit (Biacore, Freiburg/Germany). The immobilization level was about 6500 RU. […] The dissociation was monitored for 120 seconds. Bulk refractive index differences were corrected for by subtracting the response obtained on reference flow cell. […] Kinetic constants were derived using the Biacore T100 Evaluation Software (vAA, Biacore AB, Uppsala/Sweden), to fit rate equations for 1:1 Langmuir binding by numerical integration (Table 4).

Chain of recombinant cynomolgus BCMA Fc(kih) (A0A2K5UD97 entry or part of it): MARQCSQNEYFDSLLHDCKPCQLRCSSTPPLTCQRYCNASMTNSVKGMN

| Binder | Affinity cyno/hu gap (KD cynomolgus BCMA / KD human BCMA) [fold] |
| --- | --- |
| B1 | 4.2 |
| B2 | 14 |
| B3 | 1.7 |
| B4 | 12.7 |
